The values below come from article PMC3328597.

The target of the data set is T1, dSLBP P231G RPD (Drosophila, UniProt Q9VAN6 173-276, P231G).
T1 sequence: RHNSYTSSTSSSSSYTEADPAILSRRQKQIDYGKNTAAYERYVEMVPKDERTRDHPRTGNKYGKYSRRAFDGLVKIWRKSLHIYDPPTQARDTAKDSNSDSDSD
Nature of the data set: NMR.

As to GGCCAAAGGCCCUUUUCAGGGCCACCCA (structured_RNA) [SL28-CG], the binding result is “binds”.
